Data on seven molecules can be found in patent publication US20210079056A1 (Bayer, published 2021).

Holding throughout (experiment): cell-based or functional assay
Assay [1] addresses T1, rat ANP receptor (NPR-A) (rat, UniProt P18910 29-1057).
T1 sequence (looked up): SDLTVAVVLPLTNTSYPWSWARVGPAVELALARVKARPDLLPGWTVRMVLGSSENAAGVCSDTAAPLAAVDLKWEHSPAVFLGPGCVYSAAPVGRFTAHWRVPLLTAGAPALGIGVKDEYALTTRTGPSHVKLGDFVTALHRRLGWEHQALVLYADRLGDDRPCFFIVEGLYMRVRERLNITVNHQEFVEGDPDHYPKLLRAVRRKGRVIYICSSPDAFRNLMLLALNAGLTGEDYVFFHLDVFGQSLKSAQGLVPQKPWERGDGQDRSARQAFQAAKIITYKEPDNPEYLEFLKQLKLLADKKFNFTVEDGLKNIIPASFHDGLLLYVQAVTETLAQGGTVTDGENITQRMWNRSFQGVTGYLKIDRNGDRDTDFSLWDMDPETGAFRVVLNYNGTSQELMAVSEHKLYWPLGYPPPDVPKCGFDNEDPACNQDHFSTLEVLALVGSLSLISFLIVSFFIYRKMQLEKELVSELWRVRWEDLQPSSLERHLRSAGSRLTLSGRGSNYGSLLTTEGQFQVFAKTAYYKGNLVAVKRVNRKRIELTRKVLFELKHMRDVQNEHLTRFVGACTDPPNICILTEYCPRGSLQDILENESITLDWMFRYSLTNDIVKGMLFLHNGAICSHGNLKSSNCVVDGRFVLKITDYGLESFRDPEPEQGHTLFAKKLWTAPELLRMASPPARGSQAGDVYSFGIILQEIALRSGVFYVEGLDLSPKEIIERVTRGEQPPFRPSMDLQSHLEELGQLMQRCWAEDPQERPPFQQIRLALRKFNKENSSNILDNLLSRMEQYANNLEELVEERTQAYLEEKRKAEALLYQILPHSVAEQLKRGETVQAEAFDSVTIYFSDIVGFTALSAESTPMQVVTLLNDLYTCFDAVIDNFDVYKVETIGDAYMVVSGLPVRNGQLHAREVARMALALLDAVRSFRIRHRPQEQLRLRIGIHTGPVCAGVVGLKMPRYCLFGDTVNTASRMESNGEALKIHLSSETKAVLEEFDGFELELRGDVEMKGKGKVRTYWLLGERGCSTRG

For assay [2], the target named is T2, rat CNP receptor (NPR-B) (rat, UniProt P16067 17-1047).
T2 sequence (looked up): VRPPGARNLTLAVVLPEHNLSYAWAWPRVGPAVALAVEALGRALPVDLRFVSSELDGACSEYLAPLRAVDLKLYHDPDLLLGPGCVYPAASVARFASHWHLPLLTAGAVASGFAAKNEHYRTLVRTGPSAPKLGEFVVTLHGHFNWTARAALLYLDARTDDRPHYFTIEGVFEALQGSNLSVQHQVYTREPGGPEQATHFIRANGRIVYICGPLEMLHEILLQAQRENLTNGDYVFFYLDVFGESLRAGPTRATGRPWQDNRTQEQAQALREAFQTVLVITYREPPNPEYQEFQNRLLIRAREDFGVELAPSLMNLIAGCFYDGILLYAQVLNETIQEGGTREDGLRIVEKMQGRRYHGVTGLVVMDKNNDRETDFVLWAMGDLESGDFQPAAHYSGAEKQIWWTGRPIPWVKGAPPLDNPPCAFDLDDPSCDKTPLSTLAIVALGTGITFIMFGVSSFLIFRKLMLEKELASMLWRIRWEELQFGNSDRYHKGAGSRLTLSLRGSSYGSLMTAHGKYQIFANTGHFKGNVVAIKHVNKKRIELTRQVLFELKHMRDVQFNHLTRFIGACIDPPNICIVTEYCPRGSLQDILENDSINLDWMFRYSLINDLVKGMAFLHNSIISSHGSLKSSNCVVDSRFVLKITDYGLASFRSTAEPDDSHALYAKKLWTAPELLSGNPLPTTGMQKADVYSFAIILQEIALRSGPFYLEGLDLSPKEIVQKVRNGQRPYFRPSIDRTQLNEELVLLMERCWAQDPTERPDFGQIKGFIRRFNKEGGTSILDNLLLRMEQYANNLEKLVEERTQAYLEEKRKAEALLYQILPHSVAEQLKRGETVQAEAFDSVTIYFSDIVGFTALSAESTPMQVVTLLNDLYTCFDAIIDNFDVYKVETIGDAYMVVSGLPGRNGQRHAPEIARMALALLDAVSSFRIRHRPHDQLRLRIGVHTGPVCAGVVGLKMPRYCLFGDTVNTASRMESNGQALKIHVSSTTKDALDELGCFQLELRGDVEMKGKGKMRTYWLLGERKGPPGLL

Assay [3] concerns the target T3, human NPRA (human, UniProt P16066 33-1061).
T3 sequence (looked up): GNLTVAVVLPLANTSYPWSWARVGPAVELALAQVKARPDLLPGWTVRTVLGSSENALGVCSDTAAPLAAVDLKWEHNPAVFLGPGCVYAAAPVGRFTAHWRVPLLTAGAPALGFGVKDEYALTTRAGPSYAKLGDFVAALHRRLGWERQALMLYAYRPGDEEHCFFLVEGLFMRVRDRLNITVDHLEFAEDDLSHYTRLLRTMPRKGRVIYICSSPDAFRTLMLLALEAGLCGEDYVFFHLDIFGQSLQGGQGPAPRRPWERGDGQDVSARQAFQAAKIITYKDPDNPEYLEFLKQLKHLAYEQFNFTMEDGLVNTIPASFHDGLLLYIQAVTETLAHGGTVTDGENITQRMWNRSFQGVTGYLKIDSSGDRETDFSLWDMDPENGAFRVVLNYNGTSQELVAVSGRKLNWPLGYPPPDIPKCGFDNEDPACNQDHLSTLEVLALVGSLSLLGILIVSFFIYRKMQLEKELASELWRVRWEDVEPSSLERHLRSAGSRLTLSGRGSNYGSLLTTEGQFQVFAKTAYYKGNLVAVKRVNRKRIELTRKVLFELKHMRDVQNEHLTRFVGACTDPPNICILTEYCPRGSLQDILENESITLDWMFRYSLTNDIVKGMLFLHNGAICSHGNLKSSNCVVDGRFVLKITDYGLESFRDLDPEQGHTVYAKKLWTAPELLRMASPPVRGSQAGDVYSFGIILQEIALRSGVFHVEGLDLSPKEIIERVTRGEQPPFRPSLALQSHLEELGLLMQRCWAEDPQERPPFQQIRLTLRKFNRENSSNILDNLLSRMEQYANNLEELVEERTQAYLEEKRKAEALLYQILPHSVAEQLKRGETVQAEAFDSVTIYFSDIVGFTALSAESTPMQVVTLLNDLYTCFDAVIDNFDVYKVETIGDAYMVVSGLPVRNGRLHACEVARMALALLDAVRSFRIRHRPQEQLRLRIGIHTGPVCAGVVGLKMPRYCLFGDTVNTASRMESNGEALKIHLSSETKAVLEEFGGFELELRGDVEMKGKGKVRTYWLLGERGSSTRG

Substitutions are numbered along the chain they refer to.

B1: TPP-11156 (antibody, human IgG1, lambda)
heavy: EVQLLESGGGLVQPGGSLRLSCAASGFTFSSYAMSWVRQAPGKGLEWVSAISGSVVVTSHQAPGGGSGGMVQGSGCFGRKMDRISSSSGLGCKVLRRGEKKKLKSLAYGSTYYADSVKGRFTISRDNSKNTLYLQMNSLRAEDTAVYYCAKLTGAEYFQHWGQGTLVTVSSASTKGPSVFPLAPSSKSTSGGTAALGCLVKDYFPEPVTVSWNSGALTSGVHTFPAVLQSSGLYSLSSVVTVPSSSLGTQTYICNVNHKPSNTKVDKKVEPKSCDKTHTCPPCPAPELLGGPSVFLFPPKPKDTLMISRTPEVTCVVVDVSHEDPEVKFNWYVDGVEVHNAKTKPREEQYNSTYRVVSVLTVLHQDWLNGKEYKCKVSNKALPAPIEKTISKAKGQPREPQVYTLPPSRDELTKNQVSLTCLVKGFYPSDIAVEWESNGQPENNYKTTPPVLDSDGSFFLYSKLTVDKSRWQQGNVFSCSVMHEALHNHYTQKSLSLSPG
light: QSVLTQPPSVSGAPGQRVTISCTGSSSNIGAGYDVHWYQQLPGTAPKLLIYGNSNRPSGVPDRFSGSKSGTSASLAITGLQAEDEADYYCQSYDSSLSGVVFGGGTKLTVLGQPKAAPSVTLFPPSSEELQANKATLVCLISDFYPGAVTVAWKADSSPVKAGVETTTPSKQSNNKYAASSYLSLTPEQWKSHRSYSCQVTHEGSTVEKTVAPTECS
As to B1, the “EC50, fluorescence of cGMP reporter cells” value (“EC50, fluorescence” below) in assay [1] stood at 1.2 µM.

B2: TPP-12377 (antibody)
heavy: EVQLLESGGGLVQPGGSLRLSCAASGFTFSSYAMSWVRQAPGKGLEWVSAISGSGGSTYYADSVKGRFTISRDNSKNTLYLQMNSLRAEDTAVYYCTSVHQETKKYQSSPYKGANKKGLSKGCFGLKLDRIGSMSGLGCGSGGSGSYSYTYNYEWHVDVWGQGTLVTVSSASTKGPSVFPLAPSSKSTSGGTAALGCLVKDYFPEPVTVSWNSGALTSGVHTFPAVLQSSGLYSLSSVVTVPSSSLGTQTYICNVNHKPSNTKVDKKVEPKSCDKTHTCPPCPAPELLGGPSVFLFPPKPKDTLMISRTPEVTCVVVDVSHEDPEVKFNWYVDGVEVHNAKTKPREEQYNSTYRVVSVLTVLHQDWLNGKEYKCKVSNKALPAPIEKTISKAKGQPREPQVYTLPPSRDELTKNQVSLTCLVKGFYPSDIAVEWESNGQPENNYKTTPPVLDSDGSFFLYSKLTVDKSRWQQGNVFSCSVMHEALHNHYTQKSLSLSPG
light: B1 light
Consider B2, for which, in assay [2], the “EC50, luminescence of cGMP reporter cells” value (“EC50, luminescence” below) amounted to 4.1 nM.

B3: TPP-9465 (antibody)
heavy: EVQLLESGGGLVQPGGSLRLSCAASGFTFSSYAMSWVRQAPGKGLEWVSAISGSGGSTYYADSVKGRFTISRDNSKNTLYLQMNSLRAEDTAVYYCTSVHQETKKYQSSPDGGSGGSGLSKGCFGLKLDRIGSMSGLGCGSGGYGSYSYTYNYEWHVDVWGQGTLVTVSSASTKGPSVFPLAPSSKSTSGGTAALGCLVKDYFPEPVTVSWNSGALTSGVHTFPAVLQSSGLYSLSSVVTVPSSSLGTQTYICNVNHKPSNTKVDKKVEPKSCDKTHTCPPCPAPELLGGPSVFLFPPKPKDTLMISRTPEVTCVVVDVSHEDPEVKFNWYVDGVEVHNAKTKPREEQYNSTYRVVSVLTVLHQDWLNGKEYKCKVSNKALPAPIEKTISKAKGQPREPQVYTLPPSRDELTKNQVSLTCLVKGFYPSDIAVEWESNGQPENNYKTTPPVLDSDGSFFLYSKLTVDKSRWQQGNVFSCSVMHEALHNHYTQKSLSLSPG
light: B1 light
Turning to B3, in assay [2], the “EC50, luminescence” value was found to be 5.2 nM.

B4: TPP-12897 (antibody)
heavy: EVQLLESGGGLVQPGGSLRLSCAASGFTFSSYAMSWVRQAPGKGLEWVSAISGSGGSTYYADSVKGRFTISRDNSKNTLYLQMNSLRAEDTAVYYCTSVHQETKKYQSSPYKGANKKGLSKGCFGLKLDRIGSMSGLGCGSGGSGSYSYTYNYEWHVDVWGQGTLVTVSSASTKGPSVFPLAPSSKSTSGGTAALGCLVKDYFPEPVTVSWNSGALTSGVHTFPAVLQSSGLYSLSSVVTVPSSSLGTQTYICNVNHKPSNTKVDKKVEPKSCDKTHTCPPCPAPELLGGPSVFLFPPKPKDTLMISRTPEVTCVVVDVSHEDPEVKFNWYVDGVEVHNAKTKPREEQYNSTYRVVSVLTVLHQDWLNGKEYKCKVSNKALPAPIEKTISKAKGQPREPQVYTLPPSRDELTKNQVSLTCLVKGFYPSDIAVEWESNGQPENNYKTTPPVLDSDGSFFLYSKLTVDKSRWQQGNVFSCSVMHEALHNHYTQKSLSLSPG
light: B1 light with S98D
B4: the “EC50, luminescence” value in assay [2] was 10 nM.

B5: TPP-9902 (antibody)
heavy: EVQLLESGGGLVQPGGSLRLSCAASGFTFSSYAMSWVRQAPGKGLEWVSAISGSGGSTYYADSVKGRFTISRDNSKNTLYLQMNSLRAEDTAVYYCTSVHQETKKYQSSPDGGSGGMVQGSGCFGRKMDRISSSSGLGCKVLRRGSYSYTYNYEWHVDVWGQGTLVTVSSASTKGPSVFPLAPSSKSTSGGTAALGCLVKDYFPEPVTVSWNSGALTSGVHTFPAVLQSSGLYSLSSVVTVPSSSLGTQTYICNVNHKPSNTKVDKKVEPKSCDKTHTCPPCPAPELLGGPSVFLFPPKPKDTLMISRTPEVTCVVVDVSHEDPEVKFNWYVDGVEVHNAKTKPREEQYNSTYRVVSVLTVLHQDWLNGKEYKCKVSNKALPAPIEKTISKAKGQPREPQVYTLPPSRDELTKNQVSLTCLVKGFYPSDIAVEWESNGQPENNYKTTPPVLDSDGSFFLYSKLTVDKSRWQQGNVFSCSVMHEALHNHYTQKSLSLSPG
light: B1 light
As for B5, the “EC50, fluorescence” value in assay [1] came out at 2.3 µM.

B6: TPP-10992 (antibody, human IgG4 S228P, lambda)
heavy: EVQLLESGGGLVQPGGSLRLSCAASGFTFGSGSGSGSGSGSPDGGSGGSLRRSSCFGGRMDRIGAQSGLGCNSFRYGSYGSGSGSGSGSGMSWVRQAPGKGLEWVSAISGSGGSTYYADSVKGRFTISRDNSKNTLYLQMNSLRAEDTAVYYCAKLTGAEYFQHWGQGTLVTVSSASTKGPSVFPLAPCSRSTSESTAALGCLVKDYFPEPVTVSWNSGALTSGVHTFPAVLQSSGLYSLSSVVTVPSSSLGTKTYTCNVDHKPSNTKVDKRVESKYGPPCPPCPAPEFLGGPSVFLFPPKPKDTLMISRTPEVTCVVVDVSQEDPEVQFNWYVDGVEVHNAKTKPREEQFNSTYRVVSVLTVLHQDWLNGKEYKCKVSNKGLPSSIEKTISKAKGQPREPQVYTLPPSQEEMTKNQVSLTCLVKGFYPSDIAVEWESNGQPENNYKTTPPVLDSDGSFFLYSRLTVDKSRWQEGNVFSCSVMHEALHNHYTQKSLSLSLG
light: B1 light
For the molecule B6, the “EC50, fluorescence” value in assay [1] stood at 0.18 µM.

B7: TPP-5661 (antibody)
heavy: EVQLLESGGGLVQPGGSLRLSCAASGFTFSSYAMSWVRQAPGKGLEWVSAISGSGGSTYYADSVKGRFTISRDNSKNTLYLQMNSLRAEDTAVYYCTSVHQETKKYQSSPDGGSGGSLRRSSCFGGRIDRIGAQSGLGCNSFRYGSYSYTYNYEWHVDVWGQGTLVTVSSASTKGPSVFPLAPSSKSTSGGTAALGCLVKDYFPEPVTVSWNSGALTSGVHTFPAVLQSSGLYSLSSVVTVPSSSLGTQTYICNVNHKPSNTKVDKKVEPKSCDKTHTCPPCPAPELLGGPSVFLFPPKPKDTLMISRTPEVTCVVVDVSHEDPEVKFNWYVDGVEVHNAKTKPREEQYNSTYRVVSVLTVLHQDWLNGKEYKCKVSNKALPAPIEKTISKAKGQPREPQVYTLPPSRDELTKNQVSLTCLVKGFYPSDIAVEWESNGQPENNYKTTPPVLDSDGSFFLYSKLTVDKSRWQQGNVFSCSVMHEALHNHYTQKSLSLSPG
light: B1 light
Take B7: in assay [3], the “log EC50 ics, cGMP assay, stable hNPRA-CHO k1 cells” value was -8.8 log M; the “log EC50 pcs, cGMP assay, stable hNPRA-CHO k1 cells, average” value is -9.2 log M; the “log EC50 pcs, cGMP assay, transient hNPRA-HEK293 cells, average” value was -9 log M. Further, in assay [1], the “EC50, fluorescence” value amounted to 0.017 µM.
